Read-outs that look alike come from different tables or passages of the source. Square brackets hold non-standard residues; d marks the D form. * marks the point of attachment. 2Nal = N[C@@H](Cc1ccc2ccccc2c1)C(=O)O; NMeR = CN[C@@H](CCCNC(=N)N)C(=O)O; Dap = NC[C@H](N)C(=O)O; nal = not defined here; 125I = [125I]*
B3: human chemokine receptor type 4 (CXCR4) (receptor, UniProt P61073 1-352, looked up)
chain: MEGISIYTSDNYTEEMGSGDYDSMKEPCFREENANFNKIFLPTIYSIIFLTGIVGNGLVILVMGYQKKLRSMTDKYRLHLSVADLLFVITLPFWAVDAVANWYFGNFLCKAVHVIYTVNLYSSVLILAFISLDRYLAIVHATNSQRPRKLLAEKVVYVGVWIPALLLTIPDFIFANVSEADDRYICDRFYPNDLWVVVFQFQHIMVGLILPGIVILSCYCIIISKLSHSKGHQKRKALKTTVILILAFFACWLPYYIGISIDSFILLEIIKQGCEFENTVHKWISITEALAFFHCCLNPILYAFLGAKFKTSAQHALTSVSRGSSLKILSKGKRGGHSSVSTESESSSFHSS
notes: whole, on cells; also called CXCR4 receptor; CXCR4 chemokine receptor

Columns and labels:
[1] = target: B3; assay: competition with 125I-CPCR4 tracer on CXCR4-expressing cells
[2] = target: B3; assay: as above; remark: listed apart in the source
[3] = target: B3; assay: as above; remark: listed apart in the source
[4] = target: T1, recombinant human SDF-1α (stromal cell-derived factor 1α) (human, UniProt P48061-2 22-89); assay: competitive radioligand binding on CXCR4-expressing cells
T1 construct: also called SFD-1α

[5] = target: B3; assay: radioligand binding on Jurkat and CMS5/CXCR4 cells
[6] = target: B3; assay: saturation radioligand binding, Jurkat and CMS5/CXCR4 cells
[7] = target: B3; assay: competition with 125I-CPCR4 tracer on CXCR4-expressing cells; remark: listed apart in the source

Binder: cyclo([dY]RR[2Nal][Dap]G) (not fully specified (residue 5); printed as cyc[D-Tyr-Arg-Arg-Nal-Dap(FP)-Gly], also called BL 58; BL58) [cyc[D-Tyr-Arg-Arg-Nal-Dap(FP)-Gly]]
- IC50 [1]: ~1000 nM

B1: cyc[D-Tyr-(Me)Arg-Arg-Nal-Gly] (peptide)
peptide: cyclo([dY][NMeR]R[2Nal]G)
SMILES: CN1C(=O)[C@@H](Cc2ccc(O)cc2)NC(=O)CNC(=O)[C@H](Cc2ccc3ccccc3c2)NC(=O)[C@H](CCCNC(=N)N)NC(=O)[C@@H]1CCCNC(=N)N
notes: also called OD1
- IC50 [2]: 23 nM

B2: cyc[D-Tyr-Arg-Arg-nal-Ala-Gly] (peptide)
peptide: cyclo([dY]RR[nal]AG)
modifications: reading uncertain; also: printed as cyc[D-Tyr-Arg-Arg-nal-Ala-Gly]
notes: differs by nal against Nal; also called BL 40
- IC50 [3]: ~1000 nM

Binder: B3
- binding result [4]: binds

Binder: cyclo([dY](125I)RR[2Nal]G) (also called radiolabeled CPCR4) [125I-CPCR4]
- Kd [5]: 0.4 nM
- Kd [6]: 0.3 to 0.4 nM

B4: cyc[D-Tyr-His-Arg-Nal-Gly] (peptide)
peptide: cyclo([dY]HR[2Nal]G)
SMILES: N=C(N)NCCC[C@@H]1NC(=O)[C@H](Cc2c[nH]cn2)NC(=O)[C@@H](Cc2ccc(O)cc2)NC(=O)CNC(=O)[C@H](Cc2ccc3ccccc3c2)NC1=O
- IC50 [7]: 30 nM

Binder: cyclo([dY]R[NMeR][2Nal]G) (also called OD3) [cyc[D-Tyr-Arg-(Me)Arg-Nal-Gly]]
- IC50 [2]: 31 nM

From patent US20140100172A1 (MALLINCKRODT, published 2014)
